This note sets out measurements from patent CN118459575A (CHENZHOU NO 1 PEOPLES HOSPITAL, dated 2024).

Experiment [1] addresses SARS-CoV-2 Gamma突变株 S蛋白 (假病毒) (SARS-CoV-2 Gamma). Description: cell-based or functional assay.
Experiment [2] addresses SARS-CoV-2 Delta突变株 S蛋白 (假病毒) (SARS-CoV-2 Delta). Kind of experiment: cell-based or functional assay.
Experiment [3] has as its target SARS-CoV S1蛋白 (Sino Biological, 货号 40150-V08B1) (SARS-CoV, UniProt P59594 14-667). Description: ELISA, S1 coated at 2 μg/mL, antibody titrated. (In general: ELISA stands for enzyme-linked immunosorbent assay.)
In experiment [4] the target is T1, SARS-CoV-2 S1蛋白 (Sino Biological, 货号 40591-V08H) (SARS-CoV-2, UniProt P0DTC2 16-685).
T1 construct: domain: S1
Description: ELISA, S1 coated at 2 μg/mL, antibody at 1 μg/mL.

The target of experiment [5] is T2, SARS-CoV-2 S2蛋白 (Sino Biological, 货号 40590-V08B) (SARS-CoV-2, UniProt P0DTC2 686-1213).
T2 construct: domain: S2
Kind of experiment: ELISA, S2 coated at 2 μg/mL, antibody at 1 μg/mL.

The target in experiment [6] is T3, SARS-CoV-2-Hu-1 S蛋白 (Sino Biological, 货号 40589-V08B1) (SARS-CoV-2, UniProt P0DTC2 14-1213).
T3 construct: extracellular domain
Kind of experiment: ELISA screen, S protein coated at 2 μg/mL, antibody at 1 μg/mL.

B1: 广谱抗sarbecovirus和/或新冠突变株的抗体 SCM12-61 (antibody, V domains shown)
VH: QVQLVESGGGVVQPGRSLRLSCATSGFTFRSSAMHWVRQAPGKGLEWVAVIWFDGIKKYYTDSVKGRFTISRDNSKNTLYLQMNSLGAEDTAVYYCARDRAREFYPGPHCGDECYSSDAFDVWGQGTTVIVSS
VL: DIQMTQSPSSLSASVGDRVTITCRASQDINTYLNWYQQKSGRAPKFLIYAASSLQSGIPSRFSGSGSGTDFTLTIDSLQPEDFATYYCQQSHSIPYTFGQGTKLEIKR
In the case of B1, the results for the “假病毒中和 IC50” value in experiment [1] and in experiment [2] were 0.00813 mg/L and 0.0248 mg/L, respectively. The binding result in experiment [3] is reported as “binds”; in experiment [4], “binds”; in experiment [5], “no binding (tested: 1μg/mL)”; in experiment [6], “binds”.
